Patent US10870693B2, “Therapeutic combination and methods of treatment with a DLL4 antagonist and an anti-hypertensive agent” (OncoMed Pharmaceuticals, Inc., priority 2009, dated 2020)
Counter-ions that a name gives are not always drawn.

Experiments:
[1] = Phase 1 study of OMP-21M18: blood pressure readings and anti-hypertensive treatment of individual subjects
Experimental: For study days in which an infusion of OMP-21M18 was administered, blood pressure readings include a reading pre-infusion, 15 minutes after the start of infusion, at the end of infusion, and 15 minutes post-infusion.
OMP-21M18 was administered at dosages of 0.5 mg/kg weekly to three subjects, 1.0 mg/kg weekly to three subjects, 2.5 mg/kg every two weeks to six subjects, 2.5 mg/kg weekly to six subjects, 5.0 mg/kg every two weeks to six subjects, 5.0 mg/kg weekly to three subjects, and 10.0 mg/kg every two weeks to six subjects. According to the study protocol, the administration period was nine weeks, unless a subject was removed from the study due to a dose limiting toxicity. Baseline blood pressure readings were taken just prior to administration of the first dosage. Toxicities were assessed using the National Institute of Health's Common Toxicity Criteria for Adverse Events (CTCAE) version 3.0. During the study, subjects were assessed for dose limiting toxicities from the time of the first dose through 7 days after administration of the fourth dose (Days 0-28).

[2] = Phase 1 dose escalation study of OMP-21M18 in subjects with solid tumors: incidence of hypertension (CTCAE v3.0); type: in vivo; conditions: for Grade 3 Hypertension / Grade 4 Hypertension: number of patients
Experimental: Thirty-three subjects with advanced solid tumors initiated treatment with OMP-21M18 in a Phase I clinical trial. The trial was designed to determine the maximum tolerated dose (MTD), safety, pharmacokinetics, immunogenicity, and preliminary efficacy of OMP-21M18 in subjects with advanced solid tumors. All subjects had histologically confirmed malignancies that were metastatic or unresectable and had received extensive treatment for their cancer.
OMP-21M18 was prepared for use at a concentration of 10 mg/mL in a solution of 50 mM histidine, 100 mM sodium chloride, 45 mM sucrose, and 0.01% (w/v) Polysorbate 20, with the pH adjusted to 6.0. Once prepared, OMP-21M18 was stored as 20 mL aliquots in 25-cc vials.

[3] = Subject 1 on OMP-21M18 0.5 mg/kg weekly, Lotensin, Norvasc and hydrochlorothiazide together
[4] = Subject 2 on OMP-21M18 1 mg/kg, labetalol 400 bid, lasix 20 mg qd, Norvasc 10 mg qd, Prinzide 20/25 mg together, 7 additional OMP-21M18 doses without hypertension
[5] = 2.5 mg/kg every 2 weeks, 6 patients
[6] = 5.0 mg/kg every 2 weeks, 6 patients
[7] = 10.0 mg/kg every 2 weeks, 6 patients, one patient had both Grade 3 and Grade 4

CCOC(=O)[C@H](CCc1ccccc1)N[C@H]1CCc2ccccc2N(CC(=O)O)C1=O [Lotensin®, benazepril hydrochloride, reference compound]
blood pressure control by anti-hypertensive regimen [1, 3]: adequate blood pressure control

CCOC(=O)C1=C(COCCN)NC(C)=C(C(=O)OC)C1c1ccccc1Cl (centres unmarked) [Norvasc®, amlodipine besylate, reference compound]
blood pressure control by anti-hypertensive regimen [1, 3]: adequate blood pressure control
blood pressure control by anti-hypertensive regimen [1, 4]: controlled their blood pressure
adverse event leading to discontinuation of anti-hypertensive ([1]; Subject 3 on OMP-21M18 2.5 mg/kg, Norvasc 5 mg qd, discontinued Day 141): ankle edema

NS(=O)(=O)c1cc2c(cc1Cl)NCNS2(=O)=O [hydrochlorothiazide, reference compound]
blood pressure control by anti-hypertensive regimen [1, 3]: adequate blood pressure control

CC(CCc1ccccc1)NCC(O)c1ccc(O)c(C(N)=O)c1 (centres unmarked) [labetalol, reference compound]
blood pressure control by anti-hypertensive regimen [1, 4]: controlled their blood pressure

NS(=O)(=O)c1cc(C(=O)O)c(NCc2ccco2)cc1Cl [lasix, reference compound]
blood pressure control by anti-hypertensive regimen [1, 4]: controlled their blood pressure

B1: OMP-21M18: humanized anti-DLL4 antibody encoded by the plasmid with ATCC deposit number PTA-8425 (antibody, V domains shown)
VH: QVQLVQSGAEVKKPGASVKISCKASGYSFTAYYIHWVKQAPGQGLEWIGYISSYNGATNYNQKFKGRVTFTTDTSTSTAYMELRSLRSDDTAVYYCARDYDYDVGMDYWGQGTLVTVSS
VL: DIVMTQSPDSLAVSLGERATISCRASESVDNYGISFMKWFQQKPGQPPKLLIYAASNQGSGVPDRFSGSGSGTDFTLTISSLQAEDVAVYYCQQSKEVPWTFGGGTKVEIK
modifications: Heavy chain variable region, H7; Light chain variable region
blood pressure, highest reported ([1]; Subject 1, 0.5 mg/kg weekly, Day 21, 15 minutes post infusion, baseline 135/73, on Lotensin 30 mg qd): 199/92
blood pressure ([1]; Subject 1, 0.5 mg/kg weekly, Day 24, baseline 135/73, on Lotensin 30 mg qd): 183/89
blood pressure ([1]; Subject 1, 0.5 mg/kg weekly, Day 32, on Lotensin 40 mg qd and Norvasc 5 mg qd): 177/88
blood pressure ([1]; Subject 1, 0.5 mg/kg weekly, Day 41, on Lotensin 40 mg qd and Norvasc 10 mg qd): 160/85
blood pressure ([1]; Subject 2, 1 mg/kg weekly, Day 7 (high), baseline 141/85, on lisinopril 10 mg qd): 177/93
blood pressure ([1]; Subject 2, 1 mg/kg weekly, Day 14, on lisinopril plus irbesartan/hydrochlorothiazide, study drug dose not administered): 173/110
blood pressure ([1]; Subject 2, 1 mg/kg weekly, Day 21, on labetalol 100 mg bid and Prinzide 10/12.5 qd): 164/112
blood pressure ([1]; Subject 2, 1 mg/kg weekly, Day 55, on labetalol 400 mg bid and Prinzide 10/12.5 qd): 163/91
blood pressure ([1]; Subject 2, 1 mg/kg, Day 84, on labetalol 400 mg bid and Prinzide 20/25 qd, OMP-21M18 dose not administered): 167/102
blood pressure ([1]; Subject 3, 2.5 mg/kg weekly, Day 21, baseline 96/54, no prior history of hypertension): 159/90
blood pressure ([1]; Subject 3, 2.5 mg/kg, Day 112, on Dyazide 1 po qd): 152/77
blood pressure ([1]; Subject 3, 2.5 mg/kg, Day 146, on lisinopril 20 mg bid): 143/85
blood pressure ([1]; Subject 4, 2.5 mg/kg cohort, Day 14, baseline 118/73, on dyazide and lisinopril, increase not related to study drug according to the Investigator): 153/79
blood pressure ([1]; Subject 5, 10 mg/kg once every other week, Day 9, baseline 130/90): 160/90
blood pressure ([1]; Subject 5, 10 mg/kg once every other week, Day 26, at home, on lisinopril 5 mg qd): 170/90
blood pressure ([1]; Subject 5, 10 mg/kg once every other week, Day 62, on lisinopril 10 mg bid): 190/120
blood pressure ([1]; Subject 5, 10 mg/kg once every other week, Day 65, on lozartan 25 mg, bisoprolol 2.5 mg, amlodipine 5 mg qd): 170/106
blood pressure ([1]; Subject 6, 10 mg/kg cohort, Day 28, single reading, on enalapril): 150/90
blood pressure ([1]; Subject 6, 10 mg/kg cohort, subsequent reading after Day 28, on enalapril): 150/90
blood pressure ([1]; Subject 6, 10 mg/kg cohort, subsequent to start of enalapril 10 mg bid on Day 9, baseline 125/90): 140/90
blood pressure ([1]; Subject 7, 10 mg/kg once every other week, Day 9, baseline 135/90, on enalapril 5 mg bid): 170/90
blood pressure ([1]; Subject 7, 10 mg/kg once every other week, Day 56, on enalapril 10 mg bid): 155/90
blood pressure ([1]; Subject 8, 10 mg/kg once every other week, Day 17, home reading, baseline 140/90, captopril 25 mg as needed): 160/90
blood pressure ([1]; Subject 8, 10 mg/kg once every other week, Day 22, in the clinic, on captopril 12.5 qd): 130/80
blood pressure ([1]; Subject 8, 10 mg/kg once every other week, Days 23-28, at home, on captopril 12.5 qd): 150/90
blood pressure ([1]; Subject 9, 10 mg/kg once every other week, Day 7, on nifedipine 20 mg qd): 130/80
blood pressure ([1]; Subject 9, 10 mg/kg once every other week, Day 74, on nifedipine 20 mg qd, then discontinued): 115/75
Total Incidence of Hypertension ([2]; 0.5 mg/kg weekly, 3 patients): 1/3
Grade 3 Hypertension ([2]; 0.5 mg/kg weekly, 3 patients): 1
Grade 4 Hypertension ([2]; 0.5 mg/kg weekly, 3 patients): 0
Total Incidence of Hypertension ([2]; 1.0 mg/kg weekly, 3 patients): 1/3
Grade 3 Hypertension ([2]; 1.0 mg/kg weekly, 3 patients): 1
Grade 4 Hypertension ([2]; 1.0 mg/kg weekly, 3 patients): 0
Total Incidence of Hypertension [2, 5]: 1/6
Grade 3 Hypertension [2, 5]: 1
Grade 4 Hypertension [2, 5]: 0
Total Incidence of Hypertension ([2]; 2.5 mg/kg weekly, 6 patients): 2/6
Grade 3 Hypertension ([2]; 2.5 mg/kg weekly, 6 patients): 2
Grade 4 Hypertension ([2]; 2.5 mg/kg weekly, 6 patients): 0
Total Incidence of Hypertension [2, 6]: 1/3
Grade 3 Hypertension [2, 6]: 1
Grade 4 Hypertension [2, 6]: 0
Total Incidence of Hypertension ([2]; 5.0 mg/kg weekly, 3 patients): 0/3
Grade 3 Hypertension ([2]; 5.0 mg/kg weekly, 3 patients): 0
Grade 4 Hypertension ([2]; 5.0 mg/kg weekly, 3 patients): 0
subjects who experienced Grade 3 or Grade 4 hypertension ([2]; 10.0 mg/kg dose level): 6 of 6
Total Incidence of Hypertension ([2]; 10.0 mg/kg every 2 weeks, 6 patients): 6/6
Grade 3 Hypertension [2, 7]: 6
Grade 4 Hypertension [2, 7]: 1
subjects whose hypertension was labeled grade three ([2]; of the twelve subjects with hypertension, asymptomatic, controlled with oral anti-hypertensive, treatment continued): eleven
subjects for whom hypertension was reported during the course of therapy ([2]; of thirty-three subjects, all dose cohorts): twelve
patients with hypertension reported ([2]; thirty-three subjects, all dose cohorts): 36%
